In patent US20160215040A1 (Regeneron, published 2016):

Legend:
[1] = target: T1, Ebola virus GP with a C-terminal polyhistidine tag (Sino Biologicals, Catalog #40442-V08B1) (Ebola virus, UniProt P87666 33-650); assay: SPR 25C, mAb captured
T1 construct: also called EbolaGP.his; Ebola virus GP.his

[2] = target: T1, Ebola virus GP with a C-terminal …; assay: SPR 37C, mAb captured
[3] = target: T1, Ebola virus GP with a C-terminal …; assay: SPR 37C, mAb captured, pH chase
[4] = target: T2, hCNTFR.mmh (ciliary neurotrophic factor receptor.mmh) (human (printed as hCNTFR), UniProt P26992 23-342); assay: BLI, mAb captured, 25C
T2 construct: also called negative control protein; not shown: mmh (myc-myc-hexahistidine) tag
T2 sequence: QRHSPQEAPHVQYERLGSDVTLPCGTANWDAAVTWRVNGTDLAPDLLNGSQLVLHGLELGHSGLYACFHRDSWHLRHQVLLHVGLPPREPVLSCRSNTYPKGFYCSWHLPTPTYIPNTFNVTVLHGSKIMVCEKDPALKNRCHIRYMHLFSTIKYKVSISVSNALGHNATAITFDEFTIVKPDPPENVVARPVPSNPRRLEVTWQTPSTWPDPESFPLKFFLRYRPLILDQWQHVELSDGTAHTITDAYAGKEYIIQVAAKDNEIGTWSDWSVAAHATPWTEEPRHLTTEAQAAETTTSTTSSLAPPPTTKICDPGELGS

[5] = target: T3, Ebola virus GP, Cote d'Ivoire strain, on VLPs (Ebola virus, Cote d'Ivoire strain, UniProt Q66810 33-676); assay: MSD, VLPs coated
T3 construct: also called Cote d'Ivoire FJ217162; Ivory Coast
T3 sequence: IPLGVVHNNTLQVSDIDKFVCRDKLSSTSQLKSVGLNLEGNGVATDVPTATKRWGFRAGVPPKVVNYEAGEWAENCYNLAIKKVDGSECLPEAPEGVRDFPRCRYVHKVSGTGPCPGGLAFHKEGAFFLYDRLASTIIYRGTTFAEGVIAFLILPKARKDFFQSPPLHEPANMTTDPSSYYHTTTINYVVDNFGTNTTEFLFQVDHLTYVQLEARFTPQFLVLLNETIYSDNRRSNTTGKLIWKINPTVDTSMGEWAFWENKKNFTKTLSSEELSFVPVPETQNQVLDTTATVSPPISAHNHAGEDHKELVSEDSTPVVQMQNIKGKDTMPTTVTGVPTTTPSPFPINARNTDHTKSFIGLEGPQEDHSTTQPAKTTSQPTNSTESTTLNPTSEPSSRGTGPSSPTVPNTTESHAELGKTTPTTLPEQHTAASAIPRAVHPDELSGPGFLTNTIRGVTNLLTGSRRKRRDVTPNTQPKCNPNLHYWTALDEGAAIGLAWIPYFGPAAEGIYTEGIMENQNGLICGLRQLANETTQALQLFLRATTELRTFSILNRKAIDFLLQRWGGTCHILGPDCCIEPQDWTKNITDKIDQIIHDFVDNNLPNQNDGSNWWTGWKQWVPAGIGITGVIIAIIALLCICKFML

[6] = target: T4, Ebola virus GP, Sudan strain, on VLPs (Ebola virus, Sudan strain, UniProt Q7T9D9 33-676); assay: MSD, VLPs coated
T4 construct: also called Sudan NC_006432
T4 sequence: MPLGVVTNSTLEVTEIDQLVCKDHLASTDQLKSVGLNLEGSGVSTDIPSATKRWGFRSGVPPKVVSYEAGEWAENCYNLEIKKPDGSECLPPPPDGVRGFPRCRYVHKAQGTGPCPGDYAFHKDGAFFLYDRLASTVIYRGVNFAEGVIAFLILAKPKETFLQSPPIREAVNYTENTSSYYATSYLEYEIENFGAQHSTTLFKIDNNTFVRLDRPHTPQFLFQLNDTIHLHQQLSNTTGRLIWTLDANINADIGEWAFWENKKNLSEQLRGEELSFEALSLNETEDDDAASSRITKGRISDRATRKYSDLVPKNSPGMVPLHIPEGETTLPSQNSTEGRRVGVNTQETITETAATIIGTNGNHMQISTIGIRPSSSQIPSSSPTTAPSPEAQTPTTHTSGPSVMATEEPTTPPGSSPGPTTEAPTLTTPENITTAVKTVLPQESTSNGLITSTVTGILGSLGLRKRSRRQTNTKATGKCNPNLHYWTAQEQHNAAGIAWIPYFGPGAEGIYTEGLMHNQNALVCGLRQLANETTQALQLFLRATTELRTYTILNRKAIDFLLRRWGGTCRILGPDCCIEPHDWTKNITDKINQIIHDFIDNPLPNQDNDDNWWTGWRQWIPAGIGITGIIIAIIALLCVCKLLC

Binder	Kd [1]	koff [1]	kon [1]	t½ [1]	Kd [2]	koff [2]	kon [2]	t½ [2]	t½ ratio pH 7.4/pH 5.0 [3]	t½ ratio pH 7.4/pH 6.0 [3]	binding result [4]	binding result [5]	binding result [6]
H1H17199P (antibody, V domains shown) VH: EVQLVESGGGLVQPGGSLRLSCAASGFTFSDHYMVWVRQAPGKGLEWVGRTRNKANSYSTEYAASVKGRFTISRDDSKKSLYLQMNSLKTEDTAVYYCARGGETLWFGESNYGMDVWGQGTTVTVSS VL: EIVLTQSPDTLSLSPGERATLSCRASQSVSSTYLAWYQQKPGQAPSLLIYGASSRATGIPDRFSGSGSGTDFTLTISRLEPEDFAVYYCQQYGRSPLTFGGGTKVEIK	18.9 nM	0.000236 s⁻¹	12500 M⁻¹ s⁻¹	49 min	42.2 nM	0.00128 s⁻¹	30400 M⁻¹ s⁻¹	9 min	0.1	0.4	no binding (tested: below 0.10 nm at 300 nM)	no binding	no binding
H1H17219P (antibody, V domains shown) VH: QVQLQQSGPGLVKPSQTLSLTCAISGDSVSSNIPAWNWIRQSPSRGLEWLGRTYYRSKWYNDYAVSVKSRITINPDTSKNHFSLQLNSVTPEDTAVYYCARGRVYDRSSRYFYAMDVWGQGTTVTVSS VL: not shown	0.934 nM	2.9e-05 s⁻¹	31100 M⁻¹ s⁻¹	398 min	0.227 nM	≤ 1e-05 s⁻¹	44100 M⁻¹ s⁻¹	≥ 1160 min	1	1	no binding (tested: below 0.10 nm at 300 nM)	no binding	no binding
H1H17214P (antibody, V domains shown) VH: EVQLVESGGGLVQPGGSLRLSCAASKFTFDTFAMSWVRQAPGKGLEWVSFISSSGGRTDYVDSVKGRFTISRDNSKNTLYLQMNSLRAEDTAVYYCAKERTIFGVLILGPDNYGMDVWGQGTTVTVSS VL: DIQMTQSPSSLSAFVGDRVTITCRASQSISTYLNWYQQKPGKAPKLLIYAASSLQSGVSSRFSGSGSGTDFTLTISSLQPEDFATYYCQQSYSAPPITFGQGTRLEIK	≤ 0.266 nM	≤ 1e-05 s⁻¹	37600 M⁻¹ s⁻¹	≥ 1160 min	4.2 nM	0.000154 s⁻¹	36700 M⁻¹ s⁻¹	74.9 min	1	1	no binding (tested: below 0.10 nm at 300 nM)	no binding	no binding
H1M17354N (antibody, V domains shown, also called HCAF05C08-22) VH: QVQLVQSGAEVKKPGASVKVSCKASGYTFTSYYMHWVRQAPGQGLEWLGIINPSGGSTSYAQKFQGRVTMTRDTSTSTVYMELSSLRSEDTAVYYCARETGEAGEVFNYWGQGTQVTVSS VL: DIQMTQSPSSLSASVGDRVTITCRASQIISRYLNWYQHKPGKAPKVLIYAASTLQSGVPSRFSGSGSGTDFTLTISSLQPEDFATYYCQQSYSTPPITFGQGTRLEIK	63.9 nM	0.00316 s⁻¹	49400 M⁻¹ s⁻¹	3.7 min	113 nM	0.00573 s⁻¹	50800 M⁻¹ s⁻¹	2 min	1.3	1.3	no binding (tested: below 0.10 nm at 300 nM)	no binding	no binding
H1H17203P (antibody, V domains shown) VH: QVQLVESGGGVVQPGRSLRLSCAASGFTFNNYGMHWVRQAPGMGLEWVAVIWHDGSDKYYADSVKGRFTISRDNSKNTLYLQMNSLRAEDTAVYYCARNWNLFDYWGQGTLVTVSS VL: DIQMTQSPSSLSASVGDRITITCRASQSISTYLHWYQQKPGKAPKLLIYAASTLQSGVPSRFSGSGSGTDFTLTISSLQPEDFATYYCQQSFSTPPINFGQGTKLEIK	6.04 nM	0.000168 s⁻¹	27800 M⁻¹ s⁻¹	68.7 min	30.9 nM	0.00119 s⁻¹	38500 M⁻¹ s⁻¹	9.7 min	0.1	0.2	no binding (tested: below 0.10 nm at 300 nM)	no binding	no binding
H1H17223P (antibody, V domains shown) VH: EVQLVESGGGLVQPGGSLRLSCAASGFTFRTYDMHWVRQATGKGLEWVSAIGTAGDTYYPGSVKGRFTISRENAKNSLYLQMNSLRAGDTAVYYCARTIFGVVLTFDYWGQGTLVTVSS VL: DIQMTQSPSSLSASVGDRVTITCRASQSISSSLNWYQQKPGKAPKLLIYAASSLHSGVPSRFSGSGSGTDFTLTISSLQPEDFATYYCQQTYSIPPTTFGQGTKVEIK	2.03 nM	6.08e-05 s⁻¹	30000 M⁻¹ s⁻¹	190 min	6.89 nM	0.000242 s⁻¹	35100 M⁻¹ s⁻¹	47.7 min	0.4	0.4	no binding (tested: below 0.10 nm at 300 nM)	no binding	no binding
H1H17228P (antibody, V domains shown) VH: EVQLVESGGGLVQPGGSLRLSCAASGFTFSNYAMIWVRQAPGKGLEWVSGISGSGGSIYYADSVKGRFTISRDNSKNTLYLQMNSLRAEDTAVYYCAKEGIISMVRGLINYYHGMDVWGQGTTVTVSS VL: not shown	37.6 nM	0.00169 s⁻¹	44900 M⁻¹ s⁻¹	6.9 min	52.3 nM	0.00383 s⁻¹	73200 M⁻¹ s⁻¹	3 min	0.5	0.6	no binding (tested: below 0.10 nm at 300 nM)	no binding	no binding
H1H17139P (antibody, V domains shown) VH: EVQLVESGGGLVQPGGSLRLSCAASGFTFSSYDMHWVRQATGKGLEWVSAIGTAGDTYYPGSVKGRFTISRENAKNSLYLQMNSLRAGDTAVYYCARTWFGELYFDYWGQGTLVTVSS VL: not shown	7.13 nM	0.000163 s⁻¹	22900 M⁻¹ s⁻¹	70.8 min	20.6 nM	0.000512 s⁻¹	24800 M⁻¹ s⁻¹	22.5 min	0.2	0.2	no binding (tested: below 0.10 nm at 300 nM)	no binding	no binding
